Legend:
[1] = target: T1, OprF protein of Pseudomonas aeruginosa with N-terminal polyhistidine tag, in proteoliposomes (Pseudomonas aeruginosa, UniProt P13794 25-350, limits assumed); assay: ELISA on coated OprF proteoliposomes, anti-c-myc-peroxidase detection, one site-specific binding fit
T1 construct: Made by cell-free synthesis (E. coli lysate) in the presence of liposomes; inserted in the liposomal membrane, found oligomerized, in open and closed channel conformations; Genbank AFM37279.1 is printed for OprF in general; The sense primer starts at the ATG of the gene, so the signal peptide may be part of the construct; also called porin OprF; OprF membrane antigen; not shown: N-terminal …
T1 sequence (looked up): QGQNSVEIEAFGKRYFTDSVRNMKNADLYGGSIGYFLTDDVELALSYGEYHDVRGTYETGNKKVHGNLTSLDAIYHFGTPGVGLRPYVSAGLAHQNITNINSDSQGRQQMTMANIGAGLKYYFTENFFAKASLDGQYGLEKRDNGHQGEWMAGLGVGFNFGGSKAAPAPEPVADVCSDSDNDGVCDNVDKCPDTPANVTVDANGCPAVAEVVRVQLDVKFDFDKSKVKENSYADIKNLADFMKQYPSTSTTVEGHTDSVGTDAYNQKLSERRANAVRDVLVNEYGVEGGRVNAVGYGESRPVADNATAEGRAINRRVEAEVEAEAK
Experimental: By way of example, the dissociation constant Kd is determined for the scFv fragments E7, F8, F10 and G9, with an ELISA method.
For this purpose, 100 μl of OprF proteoliposomes (containing an OprF concentration of 1 μg/ml) contained in fixation buffer (0.1 M sodium carbonate, 0.1 M sodium bicarbonate) are fixed at the bottom of the wells of a 96-well plate (Thermo Scientific®) overnight at 4° C. and under stirring. The wells are then blocked for 1 h at 21° C. with 100 μl of TBS Tween (TBST) buffer containing 5% milk. After washing the wells with 100 μl of TBST buffer, 100 μl of scFv fragment (E7, F8, F10 or G9), at 1:50; 1:200; 1:400; 1:800; 1:1600 and 1:3200 dilutions in TBST buffer, are added to the corresponding wells and incubated for 1 h at 37° C. under stirring. After washing the wells, 100 μl of anti-c-myc-Peroxidase antibody (Roche) (1:10000 dilution in TBST buffer containing 5% milk) is added to the wells and incubated for 1 h at 37° C. under stirring. After washing the wells 3 times, 50 μl of TMB is added to the wells and the plate is incubated at ambient temperature and protected from light for approximately 15 min. 50 μl of 1 M HCl is then added and the absorbance of each well is measured at 450 nm. These absorbance data are then analyzed using the GraphPad Prism software (non-linear regression analysis, “one site-specific binding” equation) in order to calculate the dissociation constant Kd of each scFv fragment tested. By way of comparison, a measurement is also made on the buffer only.

[2] = target: T2, OprF protein of Pseudomonas aeruginosa on bacteria of the CHA strain (Pseudomonas aeruginosa, UniProt P13794 25-350); assay: cell-based or functional assay
T2 sequence (looked up): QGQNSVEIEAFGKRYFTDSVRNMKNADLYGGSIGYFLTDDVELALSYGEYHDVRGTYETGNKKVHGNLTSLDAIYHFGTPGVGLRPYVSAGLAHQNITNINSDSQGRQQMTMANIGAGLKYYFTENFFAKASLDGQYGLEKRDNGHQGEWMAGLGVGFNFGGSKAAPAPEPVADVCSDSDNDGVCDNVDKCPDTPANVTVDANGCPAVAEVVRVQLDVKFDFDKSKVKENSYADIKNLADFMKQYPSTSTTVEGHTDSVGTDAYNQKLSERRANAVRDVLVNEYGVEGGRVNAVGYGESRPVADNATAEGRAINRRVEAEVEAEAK

B1: scFv fragment F10 (scFv)
scFv: QVQLEQSGAEVKQPGASVKVSCKASGYSFNTYGMNWVRQAPGQRPEWMGWINADTGKSTYAPGFKERFTFSLDTSVSTAYLTISSLKAEDTAVYFCVRSCRGGVCQLYHWGQGVLVTVSSGGGGSGGGGSGGGGSDIELTQSPTSMAVSQGERVTISCTASSSVSTNYLHWYQQKPGFPPRLLVYRTSSLAPGVPARFSGSGSGTSYTLTISNMEAEDAAHYYCQQGNTIPLTFGGGTKVEIKHHHHHHEQKLISEEDL
notes: Macaque scFv, format VH-(G4S)3-VL-6xHis-c-myc
- Kd [1]: 1490 nM

B2: scFv fragment G9 (scFv)
scFv: QVQLEQSGAEVKHPGASVKVSCKASGYSFSTYGMNWVRQAPGQRPEWMGWINADTGKSTYAPGFKERFTFSLDTSVSTAYLTISSLKAEDTAVYYCVRSCRGGVCQLYHWGQGVLITVSSGGGGSGGGGSGGGGSELQMTQSPTSMAVSQGERVTISCTASSSVNTNYLHWYQQKPGFPPRLLVYGTSSLVAGVPARFSGSGSGTSYTLTISNMEAEDAANYYCQQGNTIPLTFGGGTKVEIKHHHHHHEQKLISEEDL
notes: as for B1
- Kd [1]: 295 nM
- cytotoxicity of P. aeruginosa towards macrophages (LDH release, A490-A680 nm) [2]: ~0.67 fraction of cytotoxicity reduced

B3: scFv fragment F8 (scFv)
scFv: QVQLEQSGAEVKQPGASVKVSCKASGYSFSSYGMNWVRQAPGQRPEWLGWINADTGKSTYAPGFKERFTFSLDTSVSTAYLTISSLKAEDTAVYYCVRSCRGGVCQLYHWGQGVLITVSSGGGGSGGGGSGGGGSEIELTQSPTSIAVSRGERVTVSCMASSSVRTGYLHWYQQKPGFPPRLLVYGTSSLPSGVPARFSGSGSGTSYTLTISSVEPEDVAHYYCQQGHTIPLTFGGGTKVEIKHHHHHHEQKLISEEDL
notes: as for B1
- Kd [1]: 211 nM
- cytotoxicity of P. aeruginosa towards macrophages (LDH release, A490-A680 nm) [2]: ~0.67 fraction of cytotoxicity reduced

B4: scFv fragment E7 (scFv)
scFv: QVQLEQSGAEVKQPGASVKVSCKASGYSFSSYGMNWVRQAPGQRPEWMGWINADTGKSTYAPGFKERFTFSLDTSVSTAYLTISSLKAEDTAVYYCVRSCRGGVCQLYHWGQGVLITVSSGGGGSGGGGSGGGGSDIELTQSPTSIAVSQGERVTISCTASSSVTTGYFHWYQQKPGFPPRLLVYGTSSLPSGVPARFSGSGSGTSYTLTISNMEAEDAAHYYCQQGHTIPLTFGGGTKVEIKHHHHHHEQKLISEEDL
notes: as for B1
- Kd [1]: 213 nM
- cytotoxicity of P. aeruginosa towards macrophages (LDH release, A490-A680 nm) [2]: ~0.67 fraction of cytotoxicity reduced

From patent US20220267417A1 (UNIVERSIT GRENOBLE ALPES, published 2022)
